Results reported in patent publication US9938510B2, “Photobacterium sp. alpha-2-6-sialyltransferase variants” (The Regents of the University of California, priority 2014, dated 2018).
Changes are numbered by the printed parent chain. Numbers in names are those of the source.

B1: Psp26ST(15-501)-His6: recombinant Photobacterium sp. JH-ISH-224 α2-6-sialyltransferase, residues 15-501, C-terminal His6, wild-type; SEQ ID NO: 23 (protein)
chain: CNNSEENTQSIIKNDINKTIIDEEYVNLEPINQSNISFTKHSWVQTCGTQQLLTEQNKESISLSVVAPRLDDDEKYCFDFNGVSNKGEKYITKVTLNVVAPSLEVYVDHASLPTLQQLMDIIKSEEENPTAQRYIAWGRIVPTDEQMKELNITSFALINNHTPADLVQEIVKQAQTKHRLNVKLSSNTAHSFDNLVPILKELNSFNNVTVTNIDLYDDGSAEYVNLYNWRDTLNKTDNLKIGKDYLEDVINGINEDTSNTGTSSVYNWQKLYPANYHFLRKDYLTLEPSLHELRDYIGDSLKQMQWDGFKKFNSKQQELFLSIVNFDKQKLQNEYNSSNLPNFVFTGTTVWAGNHEREYYAKQQINVINNAINESSPHYLGNSYDLFFKGHPGGGIINTLIMQNYPSMVDIPSKISFEVLMMTDMLPDAVAGIASSLYFTIPAEKIKFIVFTSTETITDRETALRSPLVQVMIKLGIVKEENVLFWA
modifications: C-terminal His6; Synthetic Psp26ST(15-501) WILD TYPE
B2: A366G: Photobacterium sp. JH-ISH-224 α2-6-sialyltransferase residues 15-501, A366G point mutation, C-terminal His6; SEQ ID NO: 2 (protein)
chain: B1 chain with A352G
modifications: C-terminal His6; Synthetic Psp26ST(15-501) A366G

Experiments:
[1] = Sialyltransferase activity assay, GalNAcαSer as acceptor (HPLC); type: biochemical; settings: 1 equivalent CMP-Neu5Ac was used; no NmCSS
Method: When LacβMU was used as an acceptor, the assay was performed in duplicate in 10 μL of Tris-HCl buffer (100 mM, pH 8.0) containing CMP-Neu5Ac (1 mM), LacβMU (1 mM), MgCl2 (20 mM), wild-type Psp2,6ST(15-501)-His6 or its mutant (0.3 μM). When an α-GalNAc-terminated acceptor was used, the assay was performed in duplicate in 10 μL of Tris-HCl buffer (100 mM, pH 8.0 for GalNAcαSer/Thr) or NaOAc-HOAc (100 mM, […]), MgCl2 (20 mM), wild-type Psp2,6ST(15-501)-His6 or its mutant (3.0 μM). Reactions were allowed to proceed at 20° C. for 20 min and stopped by adding 10 μL of cold ethanol. The analysis of sialylated product conversion was performed using the HPLC system as described above for sialyltransferase activity assay. The 4-methylumbelliferone (MU)-labeled fluorescent acceptor and the product formed were detected with excitation at 325 nm and emission at 372 nm. The 2-aminobenzoic acid (2AA)-labeled fluorescent acceptors and the products formed were detected with excitation at 315 nm and emission at 400 nm. The 9-fluorenylmethylcarbamate (Fmoc)-labeled fluorescent acceptors and the products formed were detected with excitation at 262 nm and emission at 313 nm.

[2] = Expression and Ni2+-NTA purification of soluble recombinant protein; SDS-PAGE of lysates; parameters: species or system Escherichia coli; settings: for expression level, purified by Ni2+-NTA column: per liter of Escherichia coli culture, repeated expression in duplicates or triplicates
Method: The plasmids containing mutant genes were transformed into Escherichia coli BL21 (DE3). The Escherichia coli cells were cultured in LB-rich media (10 g L^−1 tryptone, 5 g L^−1 yeast extract, and 10 g L^−1 NaCl) supplemented with ampicillin (100 μg mL^−1). Overexpression of the mutants was achieved by adding 0.3 mM of isopropyl-1-thio-β-D-galactopyranoside (IPTG) to the Escherichia coli culture when its OD600 nm reached 0.8. The induced culture was incubated at 20° C. for 20 h with vigorous shaking at 250 rpm in a C25KC incubator shaker (New Brunswick Scientific, Edison, N.J.). His6-tagged mutant proteins were purified from the cell lysate. To obtain cell lysate, the cell pellet harvested by centrifugation at 4000 rpm for 2 h was resuspended in 20 mL (for cells obtained from one liter culture) of lysis buffer (pH 8.0, 100 mM Tris-HCl containing 0.1% Triton X-100). Lysozyme (50 μg mL^−1) and DNaseI (3 μg mL^−1) were added to the resuspended cells followed by shaking at 37° C. for 60 min. The lysate was obtained as the supernatant after centrifugation at 11,000 rpm for 20 min. Purification of His6-tagged proteins from the lysate was achieved using 10 mL column packed with Ni^2+-NTA agarose. The column was pre-equilibrated with 8 column volumes of binding buffer (5 mM imidazole, 0.5 M NaCl, 50 mM Tris-HCl pH 7.5). After loading the sample, the column was washed with 8 column volumes of the binding and 8 column volumes of washing buffer (20 mM imidazole, 0.5 M NaCl, 50 mM Tris-HCl pH 7.5). Protein was eluted using 8 column volumes of the elute buffer (200 mM imidazole, 0.5 M NaCl, 50 mM Tris-HCl pH 7.5). The fractions containing the purified enzyme were collected and stored at 4° C. Protein concentrations were quantified by bicinchoninic acid (BCA) protein assay kit according to manufacturer's instruction using bovine serum albumin (BSA) as the protein standard. The wild-type enzyme and A366G mutant were expressed, purified, and quantified in duplicates or triplets for at least three times. […]

[3] = One-pot two-enzyme (OP2E) sialylation with NmCSS, GalNAcαThr as acceptor; type: biochemical; settings: 2.5 equivalents of Neu5Ac and 5.0 equivalents of CTP
Description: (§1) White bars: GalNAcαSer was used as an acceptor with 1 equivalent of Neu5Ac and 1.5 equivalents of CTP. Grey bars: GalNAcαSer was used as an acceptor with 2.5 equivalents of Neu5Ac and 5.0 equivalents of CTP. Black bars: GalNAcαThr was used as an acceptor with 2.5 equivalents of Neu5Ac and 5.0 equivalents of CTP.
In this system, CTP and Neu5Ac were used by NmCSS for the formation of CMP-Neu5Ac in situ (see also, Yu and Chen, et al. Bioorg. Med. Chem. 2004, 12, 6427-6435). CMP-Neu5Ac was used as the donor substrate for Psp26ST(15-501)-His6 or its mutants. […] For example, using 1 equivalent of Neu5Ac and 1.5 equivalents of CTP in the one-pot two-enzyme (OP2E) reaction (white bars in FIG. 6) improved the GalNAcαSer α2-6-sialylation reaction yields from less than 6% (1 equivalent CMP-Neu5Ac was used) (FIG. 5B) to 32-51% for W365A, W365G, W365S mutants. Similarly, the OP2E reaction improved the GalNAcαSer α2-6-sialylation reaction yields from 40% and 37% to 75% and 67% for A366G mutant and the wild-type enzyme, respectively. Increasing the concentrations of Neu5Ac and CTP to 2.5 and 5.0 equivalents further improved the reaction yields to more than 67% for Psp26ST(15-501)-His6 and its mutants ([…]). […] Therefore, in situ generation of CMP-Neu5Ac, the sugar nucleotide donor for sialyltransferases, was proven an efficient method to enhance the yields for sialylation reactions catalyzed not only by the wild-type enzymes but also sialyltransferase mutants.

[4] = One-pot two-enzyme (OP2E) sialylation with NmCSS, GalNAcαSer as acceptor; type: biochemical; settings: 1 equivalent of Neu5Ac and 1.5 equivalents of CTP
Description: as §1
In this system, CTP and Neu5Ac were used by NmCSS for the formation of CMP-Neu5Ac in situ (see also, Yu and Chen, et al. Bioorg. Med. Chem. 2004, 12, 6427-6435). CMP-Neu5Ac was used as the donor substrate for Psp26ST(15-501)-His6 or its mutants. […] For example, using 1 equivalent of Neu5Ac and 1.5 equivalents of CTP in the one-pot two-enzyme (OP2E) reaction (white bars in FIG. 6) improved the GalNAcαSer α2-6-sialylation reaction yields from less than 6% (1 equivalent CMP-Neu5Ac was used) (FIG. 5B) to 32-51% for W365A, W365G, W365S mutants. Similarly, the OP2E reaction improved the GalNAcαSer α2-6-sialylation reaction yields from 40% and 37% to 75% and 67% for A366G mutant and the wild-type enzyme, respectively. Increasing the concentrations of Neu5Ac and CTP to 2.5 and 5.0 equivalents further improved the reaction yields to more than 67% for Psp26ST(15-501)-His6 and its mutants (black bars in FIG. 6). […]

Row | Molecule | GalNAcαSer α2-6-sialylation reaction yield, sialyltransferase alone (FIG. 5B) [1] [%] | expression level, purified by Ni2+-NTA column [2] | yield of Neu5Acα2-6GalNAcαThr from GalNAcαThr, OP2E [3] [%] | GalNAcαSer α2-6-sialylation reaction yield, OP2E [4] [%] | expression level ([2]; general description) [mg/L]
1 | B1 | 37 | 18-40 mg per liter | 88 | 67 | –
2 | B2 | 40 | 72-110 mg per liter | 93 | 75 | 72 to 110
